Laboratory results taken from US20070254831A1 (published 2007).
Like-named read-outs stand apart in the source and are kept apart here. Values belong to the binder of their own block, whether it stands above or below them. Bridge positions count the residues as written; N and C are the ends. Square brackets hold non-standard residues; d marks the D form. Ends that are not written are not given here. Pen = CC(C)(S)[C@H](N)C(=O)O; NMeA = CN[C@@H](C)C(=O)O

What was measured:
soluble human FcRn [1] = biological target: T1, soluble human FcRn (human, UniProt P55899 24-297; P61769 21-119, biotinylated (Sulfo-NHS-LC-Biotin) in the ELISA; amine-coupled to CM5 chip in SPR); test: SPR, pH 6
T1 construct: also called shFcRn; biotinylated shFcRn
Experimental: (§1) The following steps were performed to cross-link soluble human or cynomolgus FcRn to the dextran surface of a CM5 sensor chip (Biacore AB, Uppsala, Sweden) by an amine coupling reaction involving 1-ethyl-(3-dimethylaminopropyl)-carbodiimide hydrochloride (EDC) (Biacore AB, Uppsala, Sweden) and N-hydroxysuccinimide (NHS) (Biacore AB, Uppsala, Sweden) as recommended by Biacore (BIAapplications Handbook, version AB, section 4.2, Biacore AB, Uppsala, Sweden). […] Residual sites on the FcRn flow cell were blocked with 1 M ethanolamine hydrochloride pH 8.5 (Biacore AB, Uppsala, Sweden). A control flow cell was blocked with ethanolamine for reference subtraction. For analysis of the monomeric peptides, FcRn was coated to a final density of 4000-5000 response units (RU). For analysis of the peptide dimers, FcRn was coated to a density of 2000-2500 RU. All SPR measurements were performed using a BIACORE 3000 Instrument (Biacore AB Uppsala, Sweden). For measurements done at either pH 6 or pH 7.4, experiments were performed in 50 mM phosphate, 100 mM sodium chloride, 0.01% surfactant P20 (Biacore AB, Uppsala, Sweden).
(§2) Ten, 2-fold dilutions of the peptide were injected over the FcRn-CM5 chip at a rate of 20 μl/min for 2 min. The peptide was dissociated from the chip for 2.5 minutes with buffer. Any remaining peptide was removed from the chip with a 30 second injection of HBS-P buffer (Biacore AB, Uppsala, Sweden) at a rate of 30 μl/min. Sensorgrams were generated and analyzed using BiaEval software version 3.1 (Biacore AB, Uppsala, Sweden). The equilibrium RU observed for each injection was plotted against concentration. The equilibrium KD values were derived by analysis of the plots using the steady state affinity model included in the BiaEval software.

soluble human FcRn [2] = biological target: T1, soluble human FcRn; test: ELISA, competitor human IgG
Experimental: (§3) The wells were coated with 100 μl/well of 1 μg/ml biotinylated-shFcRn in Buffer A. The plate was sealed and incubated at 37° C. for 2 hours. Afterwards, the plate washed with 200 μl/well of Buffer B (Buffer B: 100 mM MES pH 6, 150 mM NaCl, 0.5% BSA IgG-free (Jackson ImmunoResearch, West Grove, Pa.), 0.05% Tween-20). […] To allow for mixing, the plate was rocked for 2 minutes, sealed and incubated at 37° C. for 2 hours. […] The plate was covered, incubated for 30 minutes at room temperature and washed 4 times with 200 μl/well of ice-cold buffer B. SureBlue TMB substrate solution (100 μl/well, KPL, Gaithersburg, Md.) was added and the plate was allowed to incubate at room temperature until color developed, which took 5 to 10 minutes. Once color developed, 100 μl/well of TMB stop solution (KPL, Gaithersburg, Md.) was added and the absorbance was measured at 450 nm. The data was plotted as absorbance vs. peptide concentration to derive the inhibitory concentration 50% (IC₅₀) values.

soluble human FcRn [3] = biological target: T1, soluble human FcRn; test: SPR, pH 6; remark: listed apart in the source
Experimental: as §1, §2

soluble human FcRn [4] = biological target: T1, soluble human FcRn; test: ELISA, competitor human IgG; remark: listed apart in the source
Experimental: as §3

soluble human FcRn [5] = biological target: T1, soluble human FcRn; test: SPR, pH 6; remark: listed apart in the source
Experimental: as §1, §2

soluble human FcRn [6] = biological target: T1, soluble human FcRn; test: SPR, pH 6; remark: listed apart in the source
Experimental: as §1, §2

soluble human FcRn [7] = biological target: T1, soluble human FcRn; test: ELISA, competitor human IgG; remark: listed apart in the source
Experimental: as §3

soluble human FcRn [8] = biological target: T1, soluble human FcRn; test: ELISA, competitor human IgG; remark: listed apart in the source
Experimental: as §3

soluble human FcRn [9] = biological target: T1, soluble human FcRn; test: SPR, pH 7.4
Experimental: as §1, §2

soluble human FcRn [10] = biological target: T1, soluble human FcRn; test: SPR, pH 6; remark: listed apart in the source
Experimental: as §1, §2

soluble human FcRn [11] = biological target: T1, soluble human FcRn; test: SPR, pH 6; remark: listed apart in the source
Experimental: as §1, §2

soluble human FcRn [12] = biological target: T1, soluble human FcRn; test: ELISA, competitor human IgG; remark: listed apart in the source
Experimental: as §3

soluble human FcRn [13] = biological target: T1, soluble human FcRn; test: ELISA, competitor human IgG; remark: listed apart in the source
Experimental: as §3

soluble human FcRn [14] = biological target: T1, soluble human FcRn; test: SPR, pH 6; remark: listed apart in the source
soluble human FcRn [15] = biological target: T1, soluble human FcRn; test: SPR, pH 7.4; remark: listed apart in the source
Experimental: as §1, §2

Binder: QRFXTGHFGGLYPXNGP (hC at 4; Pen at 14; disulfide; C-terminal amide) [Peptide No. 70]
- Kd (soluble human FcRn [1]): 2.1 µM

Binder: QRFXTGHFGGLYPXNGP (hC at 4 and 14; disulfide; C-terminal amide) [Peptide No. 28]
- IC50 (soluble human FcRn [2]): 20 µM
- Kd (soluble human FcRn [1]): 3.8 µM

Binder: QRFCTGHFGGLFPCNGP-NH2 (disulfide 4-14 (inferred)) [Peptide No. 26]
- Kd (soluble human FcRn [3]): 230 µM

Binder: QRFXTGHFGPLYPCNGP (Pen at 4; D-Pro at 10; disulfide; C-terminal amide) [Peptide No. 40]
- IC50 (soluble human FcRn [8]): 1.4 µM
- Kd (soluble human FcRn [9]): 1.1 µM

B1: Peptide No. 41 (peptide)
peptide: QRF[Pen]TGHFG[dR]LYPCNGP-NH2
modifications: disulfide 4-14; N-terminus assumed
SMILES: CC(C)C[C@@H]1NC(=O)[C@@H](CCCNC(=N)N)NC(=O)CNC(=O)[C@H](Cc2ccccc2)NC(=O)[C@H](Cc2c[nH]cn2)NC(=O)CNC(=O)[C@H]([C@@H](C)O)NC(=O)[C@@H](NC(=O)[C@H](Cc2ccccc2)NC(=O)[C@H](CCCNC(=N)N)NC(=O)[C@@H](N)CCC(N)=O)C(C)(C)SSC[C@@H](C(=O)N[C@@H](CC(N)=O)C(=O)NCC(=O)N2CCC[C@H]2C(N)=O)NC(=O)[C@@H]2CCCN2C(=O)[C@H](Cc2ccc(O)cc2)NC1=O
- Kd (soluble human FcRn [10]): 0.83 µM
- IC50 (soluble human FcRn [8]): 8.1 µM
- Kd (soluble human FcRn [9]): 8.8 µM

Binder: QRFXTGHFGHLYPCNGP (Pen at 4; D-His at 10; disulfide; C-terminal amide) [Peptide No. 42]
- Kd (soluble human FcRn [10]): 2 µM
- Kd (soluble human FcRn [9]): 20 µM

Binder: QRFXTGHFGILYPCNGP (Pen at 4; D-Ile at 10; disulfide; C-terminal amide) [Peptide No. 43]
- IC50 (soluble human FcRn [8]): 18 µM
- Kd (soluble human FcRn [9]): 41 µM

Binder: QRFXTGHFGFLYPCNGP (Pen at 4; D-Phe at 10; disulfide; C-terminal amide) [Peptide No. 44]
- Kd (soluble human FcRn [10]): 1.7 µM
- Kd (soluble human FcRn [9]): 100 µM

Binder: QRFXTGHFDGLYPCNGP (Pen at 4; D-Asp at 9; disulfide; C-terminal amide) [Peptide No. 47]
- Kd (soluble human FcRn [10]): 0.58 µM
- Kd (soluble human FcRn [9]): 4.9 µM

Binder: QRFXTGHFGGLYPCNGP (Pen at 4; Sar at 6; disulfide; C-terminal amide) [Peptide No. 108]
- IC50 (soluble human FcRn [4]): > 125 µM

Binder: QRFXTGHFGGLYPCNGP (Pen at 4; Sar at 9; disulfide; C-terminal amide) [Peptide No. 111]
- Kd (soluble human FcRn [5]): 2 µM

Binder: QRFXTGHFGGLYPCNGP (Pen at 4; Sar at 10; disulfide; C-terminal amide) [Peptide No. 112]
- IC50 (soluble human FcRn [4]): 0.9 µM

Binder: QRFXTGHFGGLYPCNGP (Pen at 4; NMeLeu at 11; disulfide; C-terminal amide) [Peptide No. 113]
- IC50 (soluble human FcRn [4]): 1.6 µM
- Kd (soluble human FcRn [5]): 0.086 µM

Binder: QRFXTGHFGGLYPCNGP (Pen at 4; NMeTyr at 12; disulfide; C-terminal amide) [Peptide No. 114]
- IC50 (soluble human FcRn [4]): > 125 µM
- Kd (soluble human FcRn [5]): 92 µM

Binder: RFXTGHFGGLYPC (Pen at 3; Sar at 9; NMeLeu at 10; disulfide; C-terminal amide) [Peptide No. 235]
- Kd (soluble human FcRn [11]): 0.031 µM
- Kd (soluble human FcRn [5]): 0.031 µM

Binder: QRFXTGHFGXLYPCNGP (Pen at 4; Aib (aminoisobutyric acid) at 10; disulfide; C-terminal amide) [Peptide No. 46]
- Kd (soluble human FcRn [10]): 0.48 µM
- IC50 (soluble human FcRn [8]): 2.4 µM
- Kd (soluble human FcRn [9]): 5.3 µM

Binder: QRFXTGHFGGLXPCNGP (Pen at 4; pentafluoroPhe at 12; disulfide; C-terminal amide) [Peptide No. 65]
- Kd (soluble human FcRn [3]): 72 µM

Binder: QRFXTGHFGGLXPCNGP (Pen at 4; 4-nitro-Phe at 12; disulfide; C-terminal amide) [Peptide No. 68]
- Kd (soluble human FcRn [3]): 180 µM

Binder: QRFXTGHFGGLXPCNGP (Pen at 4; 2-nitro-Tyr at 12; disulfide; C-terminal amide) [Peptide No. 87]
- Kd (soluble human FcRn [3]): 290 µM

Binder: QRFCTGHFGGLYPXNGP (hC (L-homocysteine) at 14; disulfide; C-terminal amide) [Peptide No. 27]
- IC50 (soluble human FcRn [2]): 21 µM
- Kd (soluble human FcRn [1]): 3.9 µM

Binder: QRFCTGHFGGLYPXNGP (Pen at 14; disulfide; C-terminal amide) [Peptide No. 33]
- IC50 (soluble human FcRn [2]): 18 µM

Binder: QRF[dC]TGHFGGLYPCNGP-NH2 (disulfide 4-14 (inferred)) [Peptide No. 29]
- IC50 (soluble human FcRn [2]): > 125 µM

Binder: QRFXTGHFGGLYPXNGP (Pen at 4 and 14; disulfide; C-terminal amide) [Peptide No. 34]
- IC50 (soluble human FcRn [2]): 2 µM
- Kd (soluble human FcRn [1]): 0.37 µM

Binder: QRFXTGHFGGLYPXNGP (Pen at 4; hC at 14; disulfide; C-terminal amide) [Peptide No. 69]
- IC50 (soluble human FcRn [2]): 2 µM

Continued, values first:

- IC50 (soluble human FcRn [2]): 1.6 µM
- Kd (soluble human FcRn [1]): 0.28 µM
Binder: QRFXTGHFGPLYPXNGP (Pen at 4 and 14; D-Pro at 10; disulfide; C-terminal amide) [Peptide No. 295]

- IC50 (soluble human FcRn [4]): 169 µM
- Kd (soluble human FcRn [5]): 18 µM
Binder: QRFC[NMeA]GHFGGLYPCNGP-NH2 (disulfide 4-14 (inferred)) [Peptide No. 196]

- Kd (soluble human FcRn [6]): 7.7 µM
- IC50 (soluble human FcRn [7]): 23 µM
Binder: QAFCTGHFGGLYPCNGP-NH2 (disulfide 4-14 (inferred)) [SEQ ID NO:25]

- Kd (soluble human FcRn [6]): 28 µM
- IC50 (soluble human FcRn [7]): 95 µM
Binder: QRACTGHFGGLYPCNGP-NH2 (disulfide 4-14 (inferred)) [SEQ ID NO:26]

- Kd (soluble human FcRn [6]): 4.9 µM
- IC50 (soluble human FcRn [7]): 30 µM
Binder: QRFCAGHFGGLYPCNGP-NH2 (disulfide 4-14 (inferred)) [SEQ ID NO:27]

- Kd (soluble human FcRn [6]): 8 µM
- IC50 (soluble human FcRn [7]): 30 µM
Binder: QRFCTGHFGGLYPCAGP-NH2 (disulfide 4-14 (inferred)) [SEQ ID NO:36]

- Kd (soluble human FcRn [11]): 1.4 µM
Binder: RFXTGHFFGLYPC (Pen at 3; D-Phe at 8; Sar at 9; NMeLeu at 10; disulfide; C-terminal amide) [Peptide No. 217]

- IC50 (soluble human FcRn [12]): > 50 µM
Binder: RFXTGHFVGLYPC (Pen at 3; D-Val at 8; Sar at 9; NMeLeu at 10; disulfide; C-terminal amide) [Peptide No. 218]

- Kd (soluble human FcRn [11]): 0.47 µM
- IC50 (soluble human FcRn [12]): 4 µM
Binder: RFXTGHFLGLYPC (Pen at 3; D-Leu at 8; Sar at 9; NMeLeu at 10; disulfide; C-terminal amide) [Peptide No. 219]

- Kd (soluble human FcRn [11]): 4.8 µM
- IC50 (soluble human FcRn [12]): 71 µM
Binder: RFXTGHFTGLYPC (Pen at 3; D-Thr at 8; Sar at 9; NMeLeu at 10; disulfide; C-terminal amide) [Peptide No. 240]

- Kd (soluble human FcRn [11]): 1.1 µM
- IC50 (soluble human FcRn [12]): 23 µM
Binder: RFXTGHFSGLYPC (Pen at 3; D-Ser at 8; Sar at 9; NMeLeu at 10; disulfide; C-terminal amide) [Peptide No. 241]

- Kd (soluble human FcRn [11]): 2.1 µM
- IC50 (soluble human FcRn [12]): 29 µM
Binder: RFXTGHFNGLYPC (Pen at 3; D-Asn at 8; Sar at 9; NMeLeu at 10; disulfide; C-terminal amide) [Peptide No. 243]

- Kd (soluble human FcRn [11]): 0.58 µM
- IC50 (soluble human FcRn [12]): 6.4 µM
Binder: RFXTGHFEGLYPC (Pen at 3; D-Glu at 8; Sar at 9; NMeLeu at 10; disulfide; C-terminal amide) [Peptide No. 244]

- IC50 (soluble human FcRn [13]): 2.9 µM
- Kd (soluble human FcRn [14]): 0.14 µM
- Kd (soluble human FcRn [15]): 0.38 µM
B2: Peptide No. 259 (peptide)
peptide: RFXTGXFGGLYPC
modifications: not fully specified; Pen at 3; His(Me) (mono-methylated histidine) at 6; disulfide; C-terminal amide

- IC50 (soluble human FcRn [13]): 4.4 µM
- Kd (soluble human FcRn [14]): 0.19 µM
- Kd (soluble human FcRn [15]): 0.46 µM
Binder: RFXTGXFGGLYPC (Pen at 3; His(Me)2 (di-methylated histidine) at 6; disulfide; C-terminal amide) [Peptide No. 260]

- IC50 (soluble human FcRn [13]): 85 µM
- Kd (soluble human FcRn [14]): 5.2 µM
- Kd (soluble human FcRn [15]): 6.4 µM
B3: Peptide No. 264 (peptide)
peptide: RFXTGXFGGLYPC
modifications: Pen at 3; 4-PiperidylAla at 6; Sar at 9; NMeLeu at 10; disulfide; C-terminal amide

- IC50 (soluble human FcRn [13]): 1.3 µM
- Kd (soluble human FcRn [14]): 0.067 µM
- Kd (soluble human FcRn [15]): 0.28 µM
B4: Peptide No. 268 (peptide)
peptide: RFXTGXFGGLYPC
modifications: Pen at 3; 4-PyridylAla at 6; Sar at 9; NMeLeu at 10; disulfide; C-terminal amide
